This is an account of results in US20040014072, “Novel dna synthase” (published 2004).

Data set [1] deals with T1, p41-p46 complex (DNA primase/polymerase) (Pyrococcus furiosus, UniProt Q9P9H1;Q8U4H7 SEQ:1-347,SEQ:1-396).
T1 sequence 1: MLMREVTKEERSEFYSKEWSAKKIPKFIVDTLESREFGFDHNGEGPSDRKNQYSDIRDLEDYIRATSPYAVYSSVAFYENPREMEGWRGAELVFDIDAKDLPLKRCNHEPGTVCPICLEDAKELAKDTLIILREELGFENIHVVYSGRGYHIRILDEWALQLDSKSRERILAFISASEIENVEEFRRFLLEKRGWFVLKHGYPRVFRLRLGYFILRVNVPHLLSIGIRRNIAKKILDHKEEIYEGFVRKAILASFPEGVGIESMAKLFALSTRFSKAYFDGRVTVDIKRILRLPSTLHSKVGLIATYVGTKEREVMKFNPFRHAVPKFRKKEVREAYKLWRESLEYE
T1 sequence 2: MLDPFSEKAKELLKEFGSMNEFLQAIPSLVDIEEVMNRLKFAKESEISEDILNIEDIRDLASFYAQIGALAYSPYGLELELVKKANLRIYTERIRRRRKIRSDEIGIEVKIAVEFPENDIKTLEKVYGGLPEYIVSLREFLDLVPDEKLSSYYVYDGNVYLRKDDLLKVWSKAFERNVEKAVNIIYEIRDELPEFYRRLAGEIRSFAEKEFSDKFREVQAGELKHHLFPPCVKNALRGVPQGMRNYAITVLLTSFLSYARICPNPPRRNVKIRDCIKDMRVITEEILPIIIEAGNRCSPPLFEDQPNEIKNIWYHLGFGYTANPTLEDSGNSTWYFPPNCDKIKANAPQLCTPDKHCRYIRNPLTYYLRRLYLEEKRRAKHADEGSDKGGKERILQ
The data set is described as follows: EMSA; 50 mM Tris-Cl pH 8.0, 10 mM MgCl2, 20 mM KCl, 55 C. The note with it: tags: N-terminal His6 on p41, p46 untagged, label: 5'-32P. The procedure:
(§1) The gel-shift assey was used to detect binding activity that binds enzyme to DNA. 49 chain-length oligodeoxynuclotide, 5′-d[…] GCT-3′ was labeled with ³²P at 5′ terminal. Then the chain was used for gel-shift assey with itself or annealed with 49 or 17 chain length complementary oligodeoxynuclotide. With these three kinds of DNA, and the proteins were mixed in variety of concentrations in gel-shift assey buffer (50 mM Tris.Cl, pH8.0, 10 mM MgCl₂, 20 mM KCl, and 1 mM β-mercaptoethanol). The mixtures were left for 5 minutes under temperature of 55° C. and separated by electrophoreting with 1% agarose gel. The gel was processed by 0.1×TAE buffer (4 mM Tris-Acetate, pH8.0, 0.1 mM EDTA) and electrophoreted with same buffer. Autoradiography after the electrophoration was shown in FIG. 5. p41-p46 complex bound to all types of DNA and shifted the band as the complex.
A general note: A gel shift assay detects complexes by their altered migration in electrophoresis.

The next data set deals with T2, p46 (Pyrococcus furiosus, UniProt Q8U4H7 SEQ:1-396).
T2 sequence: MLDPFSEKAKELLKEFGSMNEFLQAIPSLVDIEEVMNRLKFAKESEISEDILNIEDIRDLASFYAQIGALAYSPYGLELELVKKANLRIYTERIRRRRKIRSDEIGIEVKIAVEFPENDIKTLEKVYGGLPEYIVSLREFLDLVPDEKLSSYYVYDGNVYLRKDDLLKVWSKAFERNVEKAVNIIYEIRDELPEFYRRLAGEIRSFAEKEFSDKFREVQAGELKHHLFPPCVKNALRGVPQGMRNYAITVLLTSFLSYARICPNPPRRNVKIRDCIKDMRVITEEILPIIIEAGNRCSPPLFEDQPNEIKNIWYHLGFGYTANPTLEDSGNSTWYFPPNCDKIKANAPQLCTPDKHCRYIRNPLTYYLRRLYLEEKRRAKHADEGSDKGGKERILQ
The data set is described as follows: EMSA; no band shift for p46 alone, data not shown. The following applies: label: 5'-32P. The procedure: as §1

The target of the next data set is T3, p41 (Pyrococcus furiosus, UniProt Q9P9H1 SEQ:1-347).
T3 sequence: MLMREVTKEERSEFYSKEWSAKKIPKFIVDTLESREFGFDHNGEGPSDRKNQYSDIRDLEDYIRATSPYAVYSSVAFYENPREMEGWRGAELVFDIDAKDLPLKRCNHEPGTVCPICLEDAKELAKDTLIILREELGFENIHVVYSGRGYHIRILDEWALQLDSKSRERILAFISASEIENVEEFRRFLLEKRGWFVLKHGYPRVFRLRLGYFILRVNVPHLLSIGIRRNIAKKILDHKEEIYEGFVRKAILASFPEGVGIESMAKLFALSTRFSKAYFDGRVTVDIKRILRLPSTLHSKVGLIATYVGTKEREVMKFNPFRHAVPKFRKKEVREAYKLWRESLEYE
The data set is described as follows: EMSA; no band shift for p41 alone, data not shown. The following applies: tags: N-terminal His6, label: 5'-32P. The procedure: as §1

B1: 49-mer oligodeoxynucleotide (ssDNA)
DNA: AGCTACCATGCCTGCACGAATTAAGCAATTCGTAATCATGGTCATAGCT
On to B1, for which the binding result is on record as “binds” in data set [1], “no binding” with p46 and “no binding” with p41.

B2: 49-mer annealed to complementary 49-mer (dsDNA)
DNA 1: AGCTACCATGCCTGCACGAATTAAGCAATTCGTAATCATGGTCATAGCT
DNA 2: AGCTATGACCATGATTACGAATTGCTTAATTCGTGCAGGCATGGTAGCT
Turning to B2, the binding result in data set [1] (full duplex) is on record as “binds”; with p46 (full duplex) it was “no binding”; with p41 (full duplex), “no binding”.
